Assay results: the DeepSol protein solubility set

Assay: soluble on expression in E. coli; label from the status in PepcDB or PDB records
With “MIVIFVDFDYFFAQVEEVLNPQYKGKPLVVCVYSGRTKTSGAVATANYEARKLGVKAGMPIIKAMQIAPSAIYVPMRKPIYEAFSNRIMNLLNKHADKIEVASIDEAYLDVTNKVEGNFENGIELARKIKQEILEKEKITVTVGVAPNKILAKIIADKSKPNGLGVIRPTEVQDFLNELDIDEIPGIGSVLARRLNELGIQKLRDILSKNYNELEKITGKAKALYLLKLAQNKYSEPVENKSKIPHGRYLTLPYNTRDVKVILPYLKKAINEAYNKVNGIPMRITVIAIMEDLDILSKGKKFKHGISIDNAYKVAEDLLRELLVRDKRRNVRRIGVKLDNIIINKTNLSDFFDI” the “soluble on expression in E. coli” value was “soluble”. In the case of “EKDTIAAEHKQEASVLLNLHRNKINYLIGETMARMTSLSIAIDRPVDIKKMQSILEKTFDSEPRFSGLYFLNAKGDVTASTTELKTKVNLADRSFFIKAKETKKTVISDSYSSRITGQPIFTICVPVLDSKRNVTDYLVAAIQIDYLKNLINLLSPDVYIEVVNQDGKMIFASGQASHAEDQKPVSGYLDDISWNMKVYPNPVTIEELSKS”, the “soluble on expression in E. coli” value is reported as “not soluble”. For “MDSLKGMAIFATVVDKGSMAAAAQSLGMTPSAVSQQIRKLESRAQVTLLHRTTRRLTLTEAGEAFYRSCAQMLAIAEEAERRLGEWRDAPVGELRLAAPVGFSGTLITQALKPLLENHRQLRLQLFFQDERIDLVAERIDLAIRVGNLADSSLVARHLGDWSSVLCAAPAYLRQRAPINRPEQLTEVDWISLNTSNHLNHLTLSGPGGEVCKLRLEPRVAANGMLAVRQFTLDGLGVSYQPLPEVRDALNDGRLQQLLPEWRIPGLGIYAVTPRREAQPAKVKVAIEALRRAFATDGDERWS”, the “soluble on expression in E. coli” value was “not soluble”. With “MTENKGIMLAKSVQKHAGRAKEKILQNLGKVDRTADEIFDDHLNNFNRQQASANRLQKEFNNYIRCVRAAQAASKTLMDSVCEIYEPQWSGYDALQAQTGASESLWADFAHKLGDQVLIPLNTYTGQFPEMKKKVEKRNRKLIDYDGQRHSFQNLQANANKRKDDVKLTKGREQLEEARRTYEILNTELHDELPALYDSRILFLVTNLQTLFATEQVFHNETAKIYSELEAIVDKLATESQRGS” the “soluble on expression in E. coli” value was “soluble”. With “MGSDKIHHHHHHMLANGDVPILQLQHIIKRFGNQVAVNDVSLNIHRGEIVALLGENGAGKSTLIKILAGLYSRDEGEIYFHQQKIQSAQSLTNKNKQPIAFIHQDLGLVEWMTIAENMAFVMGFPRRFGLIDWKKINQQAQEALDFVGIHLSAQTRVFDLSRTEKALLTIARAIAVNAEILVLDEPTASLPASDVEHLFKVLNRLRKQGVGMIYVTHRLDEVIRLSDRILVMRDGYSVAEGSTKDYDVKALVKAIVGEETREKQREPLPKNTPEVVRLNEVVVGDTGPVSFSLHQGEMIALAGLRGAGQEEIGRLLFGLRKLESGDISLNECAYHAESPCEAIYKGVALVAGDRIREGLVMSMTTMENLFINPILSGHFPLKNYASKKERSECWYQFQLFDIRPKNLFIEVSSLSGGNQQKIVLARWMQLNTPVLILEDPTAGVDVGARAEIYDLLNQALKKGVAIIVISNDFEEIAHLCNRALVFNRGDIVGELFNEQVTFANLLALASDASATIN” the “soluble on expression in E. coli” value was “not soluble”. In the case of “MGVTLAKGGNVSLDKQAPNLTAVAVGLGWDARSTTGHEFDLDASALATGENKKVLSDQHFVFYNNLRSPDGSIQHEGDNLTGEGDGDDEVINVDLKAVPPNVTNIFFPVSIHEAELRGQNFGQVTNAFIRVVDRSTGNELVRYDLSEDASSETAMTFGELYRHNGEWKFRAIGQGYASGLSGIARDYGVNI”, the “soluble on expression in E. coli” value is reported as “not soluble”. With “MKTINLSIFGLGNVGLNLLRIIRSFNEENRLGLKFNVVFVADSLHSYYNERIDIGKVISYKEKGSLDSLEYESISASEALARDFDIVVDATPASADGKKELAFYKETFENGKDVVTANKSGLANFWPEIMEYARSNNRRIRYEATVAGGVPLFSFIDYSVLPSRIKKFRGIVSLTINYFIRELANKREFDDVLSEATKLGIVEKNYKDDLTGLDAARKSVILCNHLYGSSYRLSDVFYEGILDQDRSFGKNERLVTETGIVNGKPSAESRIKSLDSNDYLLTLGKGSLGYQLQTDTNGTLNVSDLYDGPYETAGAVMNDLVILSMFTV” the “soluble on expression in E. coli” value was “soluble”. For “MQADPAIRRFAKKRNKRVDRMILDSNYMHTSIDRYFPNESKRRGRPDIIYLLLEMTQESILNHKNQLRTYVHTRNNQVIRISPITRMPKSYNRFIGLFEDLFEKRIITNNGKELLSMEESSLGDLINSIRRDRTILLHPKGEMRKPSEFISNANILIVIGGFSEGDFISDTSFINERYAIFDQELTIWSVANEMVANYERAVGLTLEHHHHHH”, the “soluble on expression in E. coli” value was “soluble”. With “MSLDTEAVLAAVEDAPVRETLDSMVASLKSHEDSEFAGAIATFTGRVRERDDPDDTPTQHLEFERYDTVAEQRMATIREQLCERDGVYDVRMHHRTGVVPAGDDVVHVVVLAGHRGDAFRAVSDGIDRLKDEVPLFKKEVTVDDAFWRHDEGHHHHHH” the “soluble on expression in E. coli” value was “soluble”. In the case of “VNTFSVSRLALALAFGVTLTACSSTPPDQRPSDQTAPGTSSRPILSAKEAQNFDAQHYFASLTPGAAAWNPSPITLPAQPDFVVGPAGTQGVTHTTIQAAVDAAIIKRTNKRQYIAVMPGEYQGTVYVPAAPGGITLYGTGEKPIDVKIGLSLDGGMSPADWRHDVNPRGKYMPGKPAWYMYDSCQSKRSDSIGVLCSAVFWSQNNGLQLQNLTIENTLGDSVDAGNHPAVALRTDGDQVQINNVNILGRQNTFFVTNSGVQNRLETNRQPRTLVTNSYIEGDVDIVSGRGAVVFDNTEFRVVNSRTQQEAYVFAPATLSNIYYGFLAVNSRFNAFGDGVAQLGRSLDVDANTNGQVVIRDSAINEGFNTAKPWADAVISNRPFAGNTGSVDDNDEIQRNLNDTNYNRMWEYNNRGVGSKVVAEAKK”, the “soluble on expression in E. coli” value is reported as “soluble”. For “MAIESGYILTTPCKNEEKSLPELAESIINQTITPKLWLIINDNSTDNSAKILRDIETKYNWIRVVTSEGQKRDLSFHYAEVVRYGLSLSLEISSAEKIPVEYIGLIDADMILEKNFFEKMIDRFEQDPNLGVASGSTAYFEAENLVTEKGRDNLPIGGLRVWRRECLIETGGFPLSYSADSVSNVLALLHGWETKKFEDIIGIQTRRTGSAEGLWKGYITKGESDYYRDYHPVYVLSKFIKYSFTHPFYIGIAYMEGYINGIVKIKKKICIPEVRRYYRKKHLEIGRYYAGKFKFKLLEHHHHHH”, the “soluble on expression in E. coli” value was “not soluble”. In the case of “MEFDKGQTLGNFIDRIRLNGYNTECVFNQSICQDIKNHYKQQCCAMCGVRGNSENTQIEVDHKDGRKDDSRVSDLSTQAFDDFQALCKACNDKKRQICKKCKETGYRFDARKIPGNHYSFYEGEAEYDGCVGCYQYDPIQYRKTCNDRIYNEGYQKGYSDGYQIGYHQKTTL”, the “soluble on expression in E. coli” value is reported as “not soluble”. For “MSLNKELIQHAAYAAIERILNEYFREENLYQVPPQNHQWSIQLSELETLTGEFRYWSAMGHHMYHPEVWLIDGKSKKITTYKEAIARILQHMAQSADNQTAVQQHMAQIMSDIDNSIHRTARYLQSNTIDYVEDRYIVSEQSLYLGHPFHPTPKSASGFSEADLEKYAPECHTSFQLHYLAVHQDVLLTRYVEGKEDQVEKVLYQLADIDISEIPKDFILLPTHPYQINVLRQHPQYMQYSEQGLIKDLGVSGDSVYPTSSVRTVFSKALNIYLKLPIHVKITNFIRTNDLEQIERTIDAAQVIASVKDEVETPHFKLMFEEGYRALLPNPLGQTVEPEMDLLTNSAMIVREGIPNYHADKDIHVLASLFETMPDSPMSKLSQVIEQSGLAPEAWLECYLNRTLLPILKLFSNTGISLEAHVQNTLIELKDGIPDVCFVRDLEGICLSRTIATEKQLVPNVVAASSPVVYAHDEAWHRLKYYVVVNHLGHLVSTIGKATRNEVVLWQLVAHRLMTWKKEYANNAVFVDCVEDLYQTPTIAAKANLMSKLNDCGANPIYTHIPNPICHNKEVSYCESEGHHHHHH”, the “soluble on expression in E. coli” value was “soluble”. With “MGRKISVIIPTHYRNDLLPTAIESVARQDYEPVELIVVDDSGEGYAEPVLSEYDEVIDRPIIKEENEGWQAAYTTGIEQSTGEYIQFLDDDDYLYETKLKKTANVLDQNPEVGVSYCGVVRGDEGDFYPKQEVSGHFLEPALRFQTFPMWTGSMLMEREVLCDCLPMAGMGEEDDLDIELGDTDLKIELAKRTKADYVDECLTFYRQEGNKLWTGKRRFKKILQNIRHQKDIYNQYPEIRRDLLAEWYERQGRNYLNEQIWSAQAIQCFIKSAYYERKQKFPRIIETLAAILGRPGVMSAVRVKRTLLDGLEHHHHHH” the “soluble on expression in E. coli” value was “not soluble”. With “MGSDKIHHHHHHMKIAVLNQKGGSGKTTVSIHLAHAFSMIGYRVLLVDTDPQGSTRDWAAARNGEAPFSVIGLDRPILHKELPKLAQGYDFVFIDGAPRVSDLTRSAIMAVDFVLVPVQPSPLDVWAVHEVVELVQEATIYKPDLTAAFLINRKIANTALGREVTEVLGEYPFPVLKAQISQRVAFAECLNIGSTVLEAAPKSAASDEVRAVVEEILEAREETNHGRS” the “soluble on expression in E. coli” value was “not soluble”. In the case of “MKKAVVLLSGGMDSATTLAIARQSGFACYALSIDYGQRHVAELAAAARIGQSLQVSDHQFLKLDLAVLASSVLTDISATVPLHGTSTGIPVTYVPARNTIMLALALAWAEVLGSHDIFIGVTAVDYSGYPDCRRDYIDAFEKMANLATKAGREGMVLTVHAPLIDLPKREIIQCGMELGIDYGLTVSCYQADEAGYACGQCDACHIRRAGFEAADIPDPTCYRNKQIS”, the “soluble on expression in E. coli” value is reported as “not soluble”. For “MVDIEIWLRLMSISSLYGDDMVRIAHWLAKQSHIDAVVLQQTGLTLRQAQRFLSFPRKSIESSLCWLEQPNHHLIPADSEFYPPQLQATTDYPGALFVEGELHALHSFQLAVVGSRAHSWYGERWGRLFCETLATCGVTITSGLARGIDGVVHKAALQVNGVSIAVLGNGLNTIHPRRHARLAASLFEQGGALVSEFPLDVPPLAYNFPRRNRIISGLSKGVLVVEAALRSGSLVTARCALEQGREVFALPGPIGNPGSEGPHWLIKQGAILVTEPEEILENLQFGLHWLPDAPENSFYSPDQQDVALPFPELLANVGDEVTPVDVVAERAGQPVPEVVTQLLELELAGWIAAVPGGYVRLRRACHVRRTNVFV”, the “soluble on expression in E. coli” value was “not soluble”. With “MAHHHHHHMSDQINVKHKIGDTCRKLYSYFKTVNNTSTFIQNGTLTPSEFVDSGDFLVYKFKTWEWQEADKDRVVPYLPENKQFLITKNVPCKQRIKDLNNIVHDLIMIGYSQVMKKITIPQIYMNIYLIVNTQLMTKMYKMYKITSCYSKNMLHDSNSFKNNFIIIIKNFTCLNIITYDKYYQTPRIWLFGYNENGDPLKSEEIFEDILSDYSYKTVTVKIKIIFMILIRVLVHAEAILNVVNNWISEEKEPRIKKRINVYMYVFCFRHDLYLLFLLKFISGVIPTIEYDFTTDIEIPRDSNAGL” the “soluble on expression in E. coli” value was “not soluble”. In the case of “MAHHHHHHMRVFVLVAVRSGDGGVATYPPSVWHLQQCVRARSASCCHATSGGYLWTRDALFRALRRTHVDGAPASVLENAGASQRAKAAAPPCFYFFSALLDVGNNEEDVDLVALLLMELCVAWPNAIAAHMEVCRVCRGELSPAHASSPLAATLGEGETDEPSWQLEHFTREEALLVLLSDEIEATAATQDDFLTRWGVHNAWDHHRALQGRSWWVSGGIVAVLPSEAATRLVEPFLMLELSRMENGCPQLSRHPASCRDSSQTLEEALTHAILERELSHSVRAYLRNEVEGRIESRRLHRMTTVVPPAMALFLRGAPSSVLHECLLYHTVDCPLFPVEGGGCDAAQSSTDRATGLVAPAASPTAFLRPVKSGLSSTDLLERQRLVARDETSRLTELFCEYDLLLSGDGYVRVPLAPVSRYVFTQLLCQSELPSALMLALMRRHSDVTRRAGDMGHRIDPAAVSSRLPPPTEEEVVLGIKVTWAVTRWTAALQRGAAAAPPVGLPMWNEEQSLRKDKLCGWIRERMRKAKREAAELYSLEDAADTRATGREEDGVASTVSALPVASGDTADPLRRCRGAALEQLERRLFAPFPSSYRGSSTEWLGQALRDVAREQRHAASNMAQRDDVRASYAGPAPAARRAASPNVLDNSSSASDSDGTSDDGSEGAGGVGTPTRQETESLLAQLTELEVVLQNELASRTAIPLACGGDSRTTDSRLGVGDAVTGDQEMDVTSWLTAADMQQVTRNELFLHHVQLLESEMEQDQ”, the “soluble on expression in E. coli” value is reported as “not soluble”.
